# According to patent US20220143024A1, “METHODS OF USING IMIPRIDONES” (Board of Regents, The University of Texas System, priority 2019, published 2022):
# Columns and labels:
# Assay in all cases: BioID-MS
# PMPCA (human) = PMPCA (human) (UniProt Q10713)
# MRPS23 (human) = MRPS23 (human) (UniProt Q9Y3D9)
# COX5B (human) = COX5B (human) (UniProt P10606)
# PPIF (human) = PPIF (human) (UniProt P30405)
# SUCLG1 (human) = SUCLG1 (human) (UniProt P53597)
# MRPS16 (human) = MRPS16 (human) (UniProt Q9Y3D3)
# MICU2 (human) = MICU2 (human) (UniProt Q8IYU8)
# MTHFD1L (human) = MTHFD1L (human) (UniProt Q6UB35)
# PYCR2 (human) = PYCR2 (human) (UniProt Q96C36)
# RNMTL1 (human) = RNMTL1 (human) (UniProt Q9HC36)
# MTHFD2 (human) = MTHFD2 (human) (UniProt P13995)
# MTRF1L (human) = MTRF1L (human) (UniProt Q9UGC7)
# PIN1 (human) = PIN1 (human) (UniProt Q13526)
# ETFB (human) = ETFB (human) (UniProt P38117)
# MRPS6 (human) = MRPS6 (human) (UniProt P82932)
# CPOX (human) = CPOX (human) (UniProt P36551)
# FECH (human) = FECH (human) (UniProt P22830)
# NDUFV3 (human) = NDUFV3 (human) (UniProt P56181)
# T1MM44 (human) = T1MM44 (human) (UniProt O43615)
# NUBPL (human) = NUBPL (human) (UniProt Q8TB37)
# MRPS36 (human) = MRPS36 (human) (UniProt P82909)
# NDUFA6 (human) = NDUFA6 (human) (UniProt P56556)
# LYRM4 (human) = LYRM4 (human) (UniProt Q9HD34)
# MRPS17 (human) = MRPS17 (human) (UniProt Q9Y2R5)
# C12orf10 (human) = C12orf10 (human) (UniProt Q9HB07)
# NUDT1 (human) = NUDT1 (human) (UniProt P36639)
# THNSL1 (human) = THNSL1 (human) (UniProt Q8IYQ7)
# PRKCA (human) = PRKCA (human) (UniProt P17252)
# MTIF2 (human) = MTIF2 (human) (UniProt P46199)
# MRPL48 (human) = MRPL48 (human) (UniProt Q96GC5)
# GBAS (human) = GBAS (human) (UniProt O75323)
# ECSIT (human) = ECSIT (human) (UniProt Q9BQ95)
# COQ6 (human) = COQ6 (human) (UniProt Q9Y2Z9)
# NDUFAF4 (human) = NDUFAF4 (human) (UniProt Q9P032)
# BCKDHA (human) = BCKDHA (human) (UniProt P12694)
# VARS2 (human) = VARS2 (human) (UniProt Q5ST30)
# MRPL45 (human) = MRPL45 (human) (UniProt Q9BRJ2)
# MRPS24 (human) = MRPS24 (human) (UniProt Q96EL2)
# HADH (human) = HADH (human) (UniProt Q16836)
# MRPL44 (human) = MRPL44 (human) (UniProt Q9H9J2)
# GATC (human) = GATC (human) (UniProt O43716)
# MRPS26 (human) = MRPS26 (human) (UniProt Q9BYN8)
# NDUFS8 (human) = NDUFS8 (human) (UniProt O00217)
# ALDH6A1 (human) = ALDH6A1 (human) (UniProt Q02252)
# K1AA0564 (human) = K1AA0564 (human) (UniProt A3KMH1)
# SDHAF3 (human) = SDHAF3 (human) (UniProt Q9NRP4)
# NFS1 (human) = NFS1 (human) (UniProt Q9Y697)
# PET112 (human) = PET112 (human) (UniProt O75879)
# NDUFA12 (human) = NDUFA12 (human) (UniProt Q9UI09)
# SUCLG2 (human) = SUCLG2 (human) (UniProt Q96I99)
# IARS2 (human) = IARS2 (human) (UniProt Q9NSE4)
# NDUFAF2 (human) = NDUFAF2 (human) (UniProt Q8N183)
# ERAL1 (human) = ERAL1 (human) (UniProt O75616)
# NME4 (human) = NME4 (human) (UniProt O00746)
# AARS2 (human) = AARS2 (human) (UniProt Q5JTZ9)
# NUDT19 (human) = NUDT19 (human) (UniProt A8MXV4)
# C2orf56 (human) = C2orf56 (human) (UniProt Q7L592)
# OXCT1 (human) = OXCT1 (human) (UniProt P55809)
substance,measurement,setting,value
FlagBirA-ClpP (Y118A) (from UniProt P06709 1-321; Q16740 57-277) (enzyme),Log2 Fold change (vs control),PMPCA (human),0.15 log2
same,Log2 Fold change (vs control),MRPS23 (human),-0.22 log2
same,Log2 Fold change (vs control),COX5B (human),0.46 log2
same,Log2 Fold change (vs control),PPIF (human),0.09 log2
same,Log2 Fold change (vs control),SUCLG1 (human),-0.28 log2
same,Log2 Fold change (vs control),MRPS16 (human),0.1 log2
same,Log2 Fold change (vs control),MICU2 (human),-0.18 log2
same,Log2 Fold change (vs control),MTHFD1L (human),0.25 log2
same,Log2 Fold change (vs control),PYCR2 (human),0.26 log2
same,Log2 Fold change (vs control),RNMTL1 (human),-0.2 log2
same,Log2 Fold change (vs control),MTHFD2 (human),0.22 log2
same,Log2 Fold change (vs control),MTRF1L (human),0.51 log2
same,Log2 Fold change (vs control),PIN1 (human),-3.81 log2
same,Log2 Fold change (vs control),ETFB (human),0.4 log2
same,Log2 Fold change (vs control),MRPS6 (human),-0.62 log2
same,Log2 Fold change (vs control),CPOX (human),0.88 log2
same,Log2 Fold change (vs control),FECH (human),-0.68 log2
same,Log2 Fold change (vs control),NDUFV3 (human),0.05 log2
same,Log2 Fold change (vs control),T1MM44 (human),-0.12 log2
same,Log2 Fold change (vs control),NUBPL (human),-2.58 log2
same,Log2 Fold change (vs control),MRPS36 (human),0.11 log2
same,Log2 Fold change (vs control),NDUFA6 (human),0.44 log2
same,Log2 Fold change (vs control),LYRM4 (human),0.52 log2
same,Log2 Fold change (vs control),MRPS17 (human),-0.55 log2
same,Log2 Fold change (vs control),C12orf10 (human),-3.75 log2
same,Log2 Fold change (vs control),NUDT1 (human),-3.17 log2
same,Log2 Fold change (vs control),THNSL1 (human),0.03 log2
same,Log2 Fold change (vs control),PRKCA (human),-3.58 log2
same,Log2 Fold change (vs control),MTIF2 (human),0.3 log2
same,Log2 Fold change (vs control),MRPL48 (human),0.15 log2
same,Log2 Fold change (vs control),GBAS (human),-0.38 log2
same,Log2 Fold change (vs control),ECSIT (human),-1.04 log2
same,Log2 Fold change (vs control),COQ6 (human),0.62 log2
same,Log2 Fold change (vs control),NDUFAF4 (human),1.06 log2
same,Log2 Fold change (vs control),BCKDHA (human),1.68 log2
same,Log2 Fold change (vs control),VARS2 (human),0.76 log2
same,Log2 Fold change (vs control),MRPL45 (human),-0.29 log2
same,Log2 Fold change (vs control),MRPS24 (human),1.12 log2
same,Log2 Fold change (vs control),HADH (human),0.8 log2
same,Log2 Fold change (vs control),MRPL44 (human),1.13 log2
same,Log2 Fold change (vs control),GATC (human),-0.05 log2
same,Log2 Fold change (vs control),MRPS26 (human),-0.52 log2
same,Log2 Fold change (vs control),NDUFS8 (human),0.19 log2
same,Log2 Fold change (vs control),ALDH6A1 (human),-1.22 log2
same,Log2 Fold change (vs control),K1AA0564 (human),0.29 log2
same,Log2 Fold change (vs control),SDHAF3 (human),-0.03 log2
same,Log2 Fold change (vs control),NFS1 (human),0.25 log2
same,Log2 Fold change (vs control),PET112 (human),-0.3 log2
same,Log2 Fold change (vs control),NDUFA12 (human),-1.02 log2
same,Log2 Fold change (vs control),SUCLG2 (human),-0.49 log2
same,Log2 Fold change (vs control),IARS2 (human),0.43 log2
same,Log2 Fold change (vs control),NDUFAF2 (human),-0.15 log2
same,Log2 Fold change (vs control),ERAL1 (human),-1.33 log2
same,Log2 Fold change (vs control),NME4 (human),-0.42 log2
same,Log2 Fold change (vs control),AARS2 (human),-0.14 log2
same,Log2 Fold change (vs control),NUDT19 (human),-0.58 log2
same,Log2 Fold change (vs control),C2orf56 (human),0.19 log2
same,Log2 Fold change (vs control),OXCT1 (human),-0.95 log2
